# B1: PEX5 peptide 108-123 (Peroxisomal targeting signal 1 receptor), 16-mer library wild type / PEX14 Pex14 (PEX14 PEX14, residues 16-84) (parent)
# chain 1: GVADLALSENWAQEFL
# chain 2: TPGSENVLPREPLIATAVKFLQNSRVRQSPLATRRAFLKKKGLTDEEIDMAFQQSGTAADEPSSLGPAT
# B2: PAIP1 peptide 124-139 (Polyadenylate-binding protein-interacting protein 1), 16-mer library wild type / PABPC1 PABC (PABPC1 PABC domain, residues 544-623) (parent)
# chain 1: LMSKLSVNAPEFYPSG
# chain 2: PLTASMLASAPPQEQKQMLGERLFPLIQAMHPTLAGKITGMLLEIDNSELLHMLESPESLRSKVDEAVAVLQAHQAKEAA
# Variants of: B1
# Test: proteomic peptide phage display deep mutational scan (ProP-PD DMS): M13 P8 16-mer library selected against immobilised GST-tagged bait for four days (rounds), NGS of the eluted pools per day and pseudo-replica
# Details: with PEX14 Pex14 (PEX14 PEX14, residues 16-84); bait immobilised on MaxiSorp plates (10 µg), library pre-cleared on GST, 2 h binding at 4 °C, five washes; one round per day, days 1-4; value from days 2 and 3; scale: average fractional NGS count over selection days 2 and 3
row,screen value,Variant
1,0.000414,chain 1 GVADLALSEIWAQEFL [chain 1 N10I]
2,0.000111,chain 1 GVADLALSEKWAQEFL [chain 1 N10K]
3,0.000191,chain 1 GVADLALSELWAQEFL [chain 1 N10L]
4,6.63e-05,chain 1 GVADLALSEMWAQEFL [chain 1 N10M]
5,0.00066,chain 1 GVADLALSEPWAQEFL [chain 1 N10P]
6,0.000139,chain 1 GVADLALSESWAQEFL [chain 1 N10S]
7,0.000176,chain 1 GVADLALSETWAQEFL [chain 1 N10T]
8,0.000297,chain 1 GVADLALSEVWAQEFL [chain 1 N10V]
9,0.000211,chain 1 GVADLALSEWWAQEFL [chain 1 N10W]
10,0.00069,chain 1 GVADLALSEYWAQEFL [chain 1 N10Y]
11,0.000434,chain 1 GVADLALSENWAEEFL [chain 1 Q13E]
12,0,chain 1 GVADLALSENWAFEFL [chain 1 Q13F]
13,0.000163,chain 1 GVADLALSENWAGEFL [chain 1 Q13G]
14,0.000362,chain 1 GVADLALSENWAHEFL [chain 1 Q13H]
15,0.000475,chain 1 GVADLALSENWALEFL [chain 1 Q13L]
16,0.000626,chain 1 GVADLALSENWAPEFL [chain 1 Q13P]
17,0.000241,chain 1 GVADLALSENWAREFL [chain 1 Q13R]
18,0.000462,chain 1 GVADLALSENWATEFL [chain 1 Q13T]
19,0.000116,chain 1 GVADLALSENWAWEFL [chain 1 Q13W]
20,0.00131,chain 1 GVADLALSENWAYEFL [chain 1 Q13Y]
21,0.000717,chain 1 GVADLALAENWAQEFL [chain 1 S8A]

row,screen value,Variant
1,0,chain 1 GVADLALDENWAQEFL [chain 1 S8D]
2,0.000967,chain 1 GVADLALEENWAQEFL [chain 1 S8E]
3,0.000241,chain 1 GVADLALGENWAQEFL [chain 1 S8G]
4,0.0106,chain 1 GVADLALHENWAQEFL [chain 1 S8H]
5,0.00069,chain 1 GVADLALIENWAQEFL [chain 1 S8I]
6,0,chain 1 GVADLALKENWAQEFL [chain 1 S8K]
7,9.07e-05,chain 1 GVADLALPENWAQEFL [chain 1 S8P]
8,0,chain 1 GVADLALQENWAQEFL [chain 1 S8Q]
9,9.4e-05,chain 1 GVADLALWENWAQEFL [chain 1 S8W]
10,0.0012,chain 1 GVADLALYENWAQEFL [chain 1 S8Y]
11,0.000749,chain 1 GEADLALSENWAQEFL [chain 1 V2E]
12,0,chain 1 GIADLALSENWAQEFL [chain 1 V2I]
13,0,chain 1 GKADLALSENWAQEFL [chain 1 V2K]
14,0,chain 1 GNADLALSENWAQEFL [chain 1 V2N]
15,0.000476,chain 1 GQADLALSENWAQEFL [chain 1 V2Q]
16,0,chain 1 GRADLALSENWAQEFL [chain 1 V2R]
17,0,chain 1 GTADLALSENWAQEFL [chain 1 V2T]
18,0,chain 1 GWADLALSENWAQEFL [chain 1 V2W]
19,0.00067,chain 1 GYADLALSENWAQEFL [chain 1 V2Y]
20,0,chain 1 GVADLALSENFAQEFL [chain 1 W11F]
21,0.00018,chain 1 GVADLALSENYAQEFL [chain 1 W11Y]

# Variants of: B2
# Test: as above
# Details: with PABPC1 PABC (PABPC1 PABC domain, residues 544-623); bait immobilised on MaxiSorp plates (10 µg), library pre-cleared on GST, 2 h binding at 4 °C, five washes; one round per day, days 1-4; value from days 2 and 3; keep out of graded; scale: average fractional NGS count over selection days 2 and 3
row,screen value,Variant
1,0,chain 1 LMSKLSVNGPEFYPSG [chain 1 A9G]
2,0,chain 1 LMSKLSVNLPEFYPSG [chain 1 A9L]
3,0,chain 1 LMSKLSVNMPEFYPSG [chain 1 A9M]
4,0.000154,chain 1 LMSKLSVNTPEFYPSG [chain 1 A9T]
5,8.33e-05,chain 1 LMSKLSVNVPEFYPSG [chain 1 A9V]
6,0.000179,chain 1 LMSKLSVNAPHFYPSG [chain 1 E11H]
7,0.000185,chain 1 LMSKLSVNAPLFYPSG [chain 1 E11L]
8,0,chain 1 LMSKLSVNAPWFYPSG [chain 1 E11W]
9,0,chain 1 LMSKLSVNAPEAYPSG [chain 1 F12A]
10,0,chain 1 LMSKLSVNAPEDYPSG [chain 1 F12D]
11,0.000165,chain 1 LMSKLSVNAPEFYPSL [chain 1 G16L]
12,0.000264,chain 1 LMSKLSVNAPEFYPSP [chain 1 G16P]
13,0.000173,chain 1 LMSFLSVNAPEFYPSG [chain 1 K4F]
14,0.000112,chain 1 LMSSLSVNAPEFYPSG [chain 1 K4S]
15,0.000136,chain 1 LMSWLSVNAPEFYPSG [chain 1 K4W]
16,0.00011,chain 1 LMSKESVNAPEFYPSG [chain 1 L5E]
17,7.31e-05,chain 1 LMSKFSVNAPEFYPSG [chain 1 L5F]
18,6.08e-05,chain 1 LMSKISVNAPEFYPSG [chain 1 L5I]
19,0,chain 1 LMSKSSVNAPEFYPSG [chain 1 L5S]
20,0,chain 1 LMSKVSVNAPEFYPSG [chain 1 L5V]
21,5.13e-05,chain 1 LMSKYSVNAPEFYPSG [chain 1 L5Y]
22,9.64e-06,chain 1 LDSKLSVNAPEFYPSG [chain 1 M2D]
23,1.57e-05,chain 1 LFSKLSVNAPEFYPSG [chain 1 M2F]
24,0.000247,chain 1 LHSKLSVNAPEFYPSG [chain 1 M2H]
25,0.000185,chain 1 LRSKLSVNAPEFYPSG [chain 1 M2R]
26,0,chain 1 LYSKLSVNAPEFYPSG [chain 1 M2Y]

row,screen value,Variant
1,0.000197,chain 1 LMSKLSVHAPEFYPSG [chain 1 N8H]
2,9.39e-05,chain 1 LMSKLSVIAPEFYPSG [chain 1 N8I]
3,0,chain 1 LMSKLSVKAPEFYPSG [chain 1 N8K]
4,0.000156,chain 1 LMSKLSVQAPEFYPSG [chain 1 N8Q]
5,0.000243,chain 1 LMSKLSVVAPEFYPSG [chain 1 N8V]
6,0.000185,chain 1 LMSKLSVNAVEFYPSG [chain 1 P10V]
7,0,chain 1 LMSKLSVNAWEFYPSG [chain 1 P10W]
8,0.000167,chain 1 LMSKLSVNAPEFYFSG [chain 1 P14F]
9,4.17e-05,chain 1 LMSKLSVNAPEFYHSG [chain 1 P14H]
10,0,chain 1 LMSKLSVNAPEFYNSG [chain 1 P14N]
11,0.000163,chain 1 LMSKLSVNAPEFYSSG [chain 1 P14S]
12,8.32e-05,chain 1 LMSKLSVNAPEFYTSG [chain 1 P14T]
13,4.71e-05,chain 1 LMFKLSVNAPEFYPSG [chain 1 S3F]
14,0,chain 1 LMRKLSVNAPEFYPSG [chain 1 S3R]
15,0.00023,chain 1 LMYKLSVNAPEFYPSG [chain 1 S3Y]
16,0,chain 1 LMSKLKVNAPEFYPSG [chain 1 S6K]
17,4.7e-05,chain 1 LMSKLQVNAPEFYPSG [chain 1 S6Q]
18,0.000141,chain 1 LMSKLSVNAPEFYPLG [chain 1 S15L]
19,0.00011,chain 1 LMSKLSINAPEFYPSG [chain 1 V7I]
20,0,chain 1 LMSKLSKNAPEFYPSG [chain 1 V7K]
21,1.45e-05,chain 1 LMSKLSLNAPEFYPSG [chain 1 V7L]
22,0,chain 1 LMSKLSMNAPEFYPSG [chain 1 V7M]
23,0.000112,chain 1 LMSKLSTNAPEFYPSG [chain 1 V7T]
24,8.82e-05,chain 1 LMSKLSVNAPEFFPSG [chain 1 Y13F]
25,3.07e-05,chain 1 LMSKLSVNAPEFNPSG [chain 1 Y13N]
26,0,chain 1 LMSKLSVNAPEFPPSG [chain 1 Y13P]

# Source: paper PMC12102759
